The record followed here is the nanobody polyreactivity screen of Harvey et al. (2022).

A short description of this data set: yeast display, Sf9 membrane polyspecificity reagent, FACS + sequencing; frameworks hold sequencing errors. The procedure, abridged:
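A nanobody's polyreactivity label depends on the gate it was sorted from. Yeast display cells were stained with 10% biotinylated, detergent-solubilized Sf9 membrane reagent for 1 hour at 4 °C, enriched on streptavidin microbeads and sorted by FACS. The low and high (top ~1%) gates were set on anti-HA fluorescence for expression and streptavidin fluorescence for reagent binding.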
For the sequence “QVQLVESGGGLVQAGGSLRLSCAASGFTFYGYAMGWYRQAPGKERELVAAISSSGGRTYYADSVKGRFTISRDNAKNTVYLQMNSLKPEDTAVYYCAADYTSRDYYYWGQGTHVTVSS”, the “polyreactivity (PSR sort gate)” value is “high polyreactivity”.
To “QVQLVESGGGLVQAGGSLRLSCAASGFTFYIYAMGWYGLAAGKERELVAAINFRGGSTYYADSVKGRFTISRDNAKNTVYLQMNSLKPEDTAVKYCAARSRDKYDYWGQGTQVTVSS” belongs “high polyreactivity”.
Then “QVQLVESGGGLVQAGGSLRLSCAASGFTFYKNTMGWYRPEPGKERELVAAISSSGSSTYYADSVKGRFRISRDNAKNTVYLLMNSLKPEDTAVYYCAAGRFAYHDDYWGQGTQVTVSS”, with “high polyreactivity”.
Consider “QVQLVESGGGLVQAGGSLRLSCAASGFTFYKNTMGWYRQAPGNERELVAAISYRGGTYYADSVKGRFTISRDNAKTTVYLQMNSLKPEDTAVYYCNARYRGKYSSYGFWGHGTQVTVSS”, for which the “polyreactivity (PSR sort gate)” value was “high polyreactivity”.
Consider “QVQLVESGGGLVQAGGSLRLSCAASGFTFYKYAMGWYRQAPGKERELVAAISRRGTSTYYADSVKGRFTISRDNAKNTVYLQMNSLKPEDTAVYYCNRDVSLSAFDYWGQGTQVTVSS”, for which the “polyreactivity (PSR sort gate)” value is recorded as “high polyreactivity”.
Consider “QVQLVESGGGLVQAGGSLRLSCAASGFTFYKYAMGWYRQAPGKERELVAGIRRGGTNYADSVKGRFTISRDNAKNTVYLQMNSLKPEDTAVYYCAADVRPYYSAYRGRYYYWGQGTQVTVSS”, for which the “polyreactivity (PSR sort gate)” value is reported as “high polyreactivity”.
Then “QVQLVESGGGLVQAGGSLRLSCAASGFTFYKYVMGWYRQAPGKERELVAAISYSSGSTYYADSVKGRFTISRDNAKNTVYLQMNSLKPEDTAVYYCAARTYYAPQNMGYWGQGTQVTVSS”, with “high polyreactivity”; and “QVQLVESGGGLVQAGGSLRLSCAASGFTFYLNAKGWYRQAPGKERELVAAITGSGGSTYYADSVKGRFTISRDNAKNTVYLQMNSLKPEDTAVYYCAADLYFYVISSGYGFYYWGQGTQVTVSS”, with “low polyreactivity”.
To “QVQLVESGGGLVQAGGSLRLSCAASGFTFYLNAMGLYRQAPGKERELVAGISWRGGRTYYADSVKGRFTISRDNAKNSVYLQMNSLKAEDTAVYYCAAVTYSFQKTDYYWGQGTQVTVSS” belongs “high polyreactivity”; to “QVQLVESGGGLVQAGGSLRLSCAASGFTFYLYAMGWYRQAPGKERELVASISSGGRTYYADSVKGRFTISRDNAKNTVYLQMNSLKPEDTAVYYCAVSPYSRRKYEYYYWGQGTQVTVSS”, “high polyreactivity”; to “QVQLVESGGGLVQAGGSLRLSCAASGFTFYLYGMGWYRPAPGKERELVAGIDSDGRTNYADSVKGRFTISRDNAMNTVYLQMNSLKPEDTAVYYCAVEWAGGYDYYYWGQGSQVTVSS”, “high polyreactivity”.
Take “QVQLVESGGGLVQAGGSLRLSCAASGFTFYLYTMGWYRQAPGKERELVAAINYSGGRTYYADSVKGRFTISRDNAKNTVYLQMNSLKPEDTAVYYCYPRVKNLQAYDYWGQGTQVTVSS”: the “polyreactivity (PSR sort gate)” value was “high polyreactivity”.
For “QVQLVESGGGLVQAGGSLRLSCAASGFTFYPYAMGWYRQAPGKERELVAASTASGGSTYYADSVKGRFTISRDNAKNTVYLQMNSLKPEDTAVFYCAKGWVSYWRYKNEYWGQGTQVTVSS”, the “polyreactivity (PSR sort gate)” value is “high polyreactivity”.
Then “QVQLVESGGGLVQAGGSLRLSCAASGFTFYPYTMGWYRQAPGKERELVAVITYDSTYYADSVKGRFTISRDNAKNTVYLQMNSLKPEDTAVYYCNATGYSVSRSAYWYGWYDYWGQGTQVTVSS”, with “low polyreactivity”.
Then “QVQLVESGGGLVQAGGSLRLSCAASGFTFYQYAMGWSRPAPGKERELVAGISRGGRTYYADSVKGRFTISRDNANNTVYLQMNSLKPEDTAVYYCAARYFYYKNVYAYRTYYYWGQGTQVTVSS”, with “high polyreactivity”; and “QVQLVESGGGLVQAGGSLRLSCAASGFTFYQYAMGWYRQAPGKERELVASISWSGGRTYYADSVKGRFTISRDNAKKTVYFQKNSLKPEDTAVYYCAARAYRIAGYDYWGQGTQVTVSS”, with “high polyreactivity”.
Then “QVQLVESGGGLVQAGGSLRLSCAASGFTFYRNAMGWYRQAPGKERELVAAISRGGRTYYADSVKGRFTISRDNAKNTVYLQMNSLKPEDTAVYYCAVGYSGYGSSMDYWGQGTQVTVSS”, with “high polyreactivity”.
Take “QVQLVESGGGLVQAGGSLRLSCAASGFTFYRNAMGWYRQAPGKEREVVAAISISGGSTYYADSVKGRFTISRDNAKNTVYLQMNSLKPEDTAVYYCAAYYYRDRYSRVKVTYWGLGTQVTVSS”: the “polyreactivity (PSR sort gate)” value is recorded as “high polyreactivity”.
Then “QVQLVESGGGLVQAGGSLRLSCAASGFTFYRNTMGWYRQAPGKERELVATITFSGTRTYYADSVKGRFTISRDNAKNTVYLQMNSLKPEDTAVYYCNRVRYRQSAFDFWGQGTQVTVSS”, with “high polyreactivity”; and “QVQLVESGGGLVQAGGSLRLSCAASGFTFYRYAMGWYRKAPGKERELVAAISSSGGTTYYADSVKVRFTISRDHAKNTVYLQMNRLKPEDTAVYYCAARGWPNWGWGYDYWGQGTQVTVSS”, with “high polyreactivity”; and “QVQLVESGGGLVQAGGSLRLSCAASGFTFYRYAMGWYRQAPGKERELVAAFSGSGGSTYYADSVKGRFTISRDNAKNTVYLQMNSLKPEDTAVYYCNTVWFYGAKYDYWGQGTQVTVSS”, with “high polyreactivity”.
Then “QVQLVESGGGLVQAGGSLRLSCAASGFTFYRYAMGWYRQAPGKERELVAAISKRGGNTYYADSVKGRFTISRDNAKNTVYLQMNSLKPEDTAVYYCAADFATWDAKPYDYWGQGTQVTVSS”, with “high polyreactivity”; and “QVQLVESGGGLVQAGGSLRLSCAASGFTFYRYAMGWYRQAPGKERELVAAITRSGSRSYYADSVKGRFTISRDNAKNTVYLQMNSLKPEDTAVYSCNGPRPASTDRRRYNYCGQGTQVTVSS”, with “high polyreactivity”; and “QVQLVESGGGLVQAGGSLRLSCAASGFTFYRYAMGWYRQAPGKERELVATISASGGSTYYADSVKGRFTISRDNAKNTVYLQMNSLKPEDTAVYYCAAEHYLWGYVVVREDYWGQGTQVTVSS”, with “high polyreactivity”.
Then “QVQLVESGGGLVQAGGSLRLSCAASGFTFYRYAMGWYRQAPGNERELVAAISSGGRTTYADSVKGRFTISRDNANNTVYLQMNSLKPQDTAVYYCVFVYVYDYYYWGQGTQVTVSS”, with “high polyreactivity”; and “QVQLVESGGGLVQAGGSLRLSCAASGFTFYRYAMGWYRQAPWKERELVAVISGNAGSTYYADSVKGRFTISRDNAKNTVYLQMNSLKPEDTAVYYCNARKARAYGTFEYWGQGTQVTVSS”, with “high polyreactivity”; and “QVQLVESGGGLVQAGGSLRLSCAASGFTFYRYTMGCYRQAPGKERELVAAISSGDSTYYADSVKGRFTISRDNAKNTVYLQMNSLKPEDTAVYYCAARQYSRGAIVYYWGQGTQVTVSS”, with “high polyreactivity”.
Turning to “QVQLVESGGGLVQAGGSLRLSCAASGFTFYSYAMGWSRQAPGKERELVAAISGGGGSTYYADSVKGRFTISRDNAKNTVYLQMNSLKPEDTAVYYCAKRPAYRGYGLGYYWGQGTQVTVSS”, the “polyreactivity (PSR sort gate)” value is given as “high polyreactivity”.
To “QVQLVESGGGLVQAGGSLRLSCAASGFTFYSYAMGWYRQAPGKERELVAAISWSGTRTYYADSVKGRFTISRDNAKNTVYLQMNSLKPEDTAVYYCAARGYRYGYGYWGQGTQVTVSS” belongs “high polyreactivity”.
To “QVQLVESGGGLVQAGGSLRLSCAASGFTFYSYAMGWYRQAPGKERELVAAITDRGGSTYYADSVKGRFTISRDNAKNTVYLQMNSLKPEDTAVYYCAAASGIRSYSYGWLGREYYWGQGTQVTVSS” belongs “high polyreactivity”; to “QVQLVESGGGLVQAGGSLRLSCAASGFTFYSYAMGWYRQAPGKERELVAAITQSGGSTYYADSVKGRFTISRDNAKNTVYLQMNSLKPEDTAVYYCAADIYNDYDYGYYYWGQGTQVTVSS”, “low polyreactivity”.
In the case of “QVQLVESGGGLVQAGGSLRLSCAASGFTFYSYAMGWYRQAPGKERELVAAITRSGGNTYYADSVKGRFTISRDNAKNTVYLQMNSLKPEDTAVYYCAAPGKGISPSHYYWGQGPQVTVSS”, the “polyreactivity (PSR sort gate)” value is listed as “high polyreactivity”.
To “QVQLVESGGGLVQAGGSLRLSCAASGFTFYSYAMGWYRQAPGKERELVASISQSGGRTYYADSVKGRFTISRDNAKNTVYLQMNSLKPEDTAVYYCARQRSYGRSSYSYGYDYWGQGTQVTVSS” belongs “high polyreactivity”; to “QVQLVESGGGLVQAGGSLRLSCAASGFTFYSYAMGWYRQSPGKERELVAAISWSGTRTYYADSVKGRFTISRDTAKNTVYLQMNSLKPEDTAVYYCAARGYRYGYGYWGQGTQVTVSS”, “high polyreactivity”; to “QVQLVESGGGLVQAGGSLRLSCAASGFTFYSYVMGWYRQAPGKERELVAAIDPSGGRTYYADSVKGRFTISRDYAKNTVYLQMNSLKPVDTAVYYCAVPRVDYWGQGTQVTVSS”, “high polyreactivity”.
In the case of “QVQLVESGGGLVQAGGSLRLSCAASGFTFYSYVMGWYRQAPGKERELVAAISWSGGSTYYADSVKGRFTISRDNAKNTVYLQMNSLKPEDTAVYYCAARRYASRTGYLYDYWGQGTQVTVSS”, the “polyreactivity (PSR sort gate)” value is listed as “high polyreactivity”.
Then “QVQLVESGGGLVQAGGSLRLSCAASGFTFYTNVMGWYRQAPGKERELVAAINSGGSTNYADSVKGRFTISRDNAKNTVYLQRNSLKPEDTAVYYCNKRGTEIGYDYWGQGTQVTVLS”, with “low polyreactivity”; and “QVQLVESGGGLVQAGGSLRLSCAASGFTFYTYAMGWYRQAPGKERELVADISSGGSTNYADSVKGRFTISRDNAKNTVYLQMNSLKPEDTAVYYCSADYYFLDWYDYWGQGTQVTVSS”, with “low polyreactivity”; and “QVQLVESGGGLVQAGGSLRLSCAASGFTFYTYMGWYRQAPGKERELVAAISWSGDSTYYADSVKGRFTISRDNAKNTVYLQMKSLKPEDTAVYYCAARRVFYNGYYVNVGSFYYWGQGTQVTVSS”, with “low polyreactivity”.
On to “QVQLVESGGGLVQAGGSLRLSCAASGFTFYTYTMGWYRQAPGKERELVAVITSRGTRTYYADSVKGRFTISRDNAKNTVYLQMNSLKPEDTAVYYCNKGAGWSFGYWGQGTQVTVSS”, for which the “polyreactivity (PSR sort gate)” value is “high polyreactivity”.
Then “QVQLVESGGGLVQAGGSLRLSCAASGFTFYTYVMGWYRQAPGKERELVAAITSGVSTNYADSVKGRFTISRDNAKNTVYLQMNSVKPEDTAVYYCAAGYPSWYYGYPYDSWGQGTQVTVSS”, with “low polyreactivity”.
